Assay results: patent US20260274955A1 (JANUX THERAPEUTICS, published 2026)
No end group written: not given here.

How the values were obtained:
[1] = target: T1, Anti-CD28 Fab (SEQ ID NOs: 202, 203); assay: phage binding ELISA, Fab on plate;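 also: clonal phage supernatant ELISA, wells preincubated with CD28 antigen or blocking buffer only, then bound phage detected using HRP-linked anti-M13 antibody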
T1 construct: biotinylated and captured on neutravidin coated plates in the phage ELISA

[2] = target: T1, Anti-CD28 Fab (SEQ ID NOs: 202, 203); assay: phage binding ELISA, Fab on plate, CD28 as competitor
[3] = target: anti-CD28 Fab (SEQ ID NOs: 202, 203); assay: phage binding ELISA; biotinylated anti-CD28 Fab captured on neutravidin plate, clonal phage supernatant, anti-M13-HRP detection;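 also: before crude clonal phage supernatants were added, wells were preincubated with CD28 antigen in blocking buffer or with blocking buffer only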
[4] = target: T2, anti-CD28 Fab (SEQ ID NOs: 202, 203); assay: binding ELISA, peptide captured, anti-CD28 Fab titrated
T2 construct: biotinylated when captured in the phage ELISAs

Ab-1 [5] = target: T3, Ab-1; assay: BLI (Octet), 200 nM peptide, 100 nM Ab-1;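 also: association and dissociation phases tracked in real time, with kinetics fitted to a 1:1 interaction model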
T3 construct: also called anti-CD28 scFv harbored in Ab-1

Ab-1 [6] = target: T3, Ab-1; assay: competition ELISA, peptide titrated vs 1 nM Ab-1 binding plate-bound CD28
Ab-1 [7] = target: T3, Ab-1; assay: binding ELISA, peptide captured, Ab-1 titrated
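For Anti-CD28 Fab signal in the presence of CD28 in this document: coated wells pre-incubated with CD28 antigen or with blocking buffer only, then crude clonal phage supernatant added briefly, and retained phage read out via HRP-linked anti-M13 antibody.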

SCAAGATYTWPMCI [Phage-1054]
Anti-CD28 Fab (SEQ ID NOs: 202, 203) signal [1]: 1.66 | Anti-CD28 Fab signal in the presence of CD28 [2]: 0.07

TCAAGATWVWPTCF [Phage-1228]
Anti-CD28 Fab (SEQ ID NOs: 202, 203) signal [3]: 0.92

TCAAGASWDWPFCF [Phage-1237]
Anti-CD28 Fab (SEQ ID NOs: 202, 203) signal [3]: 0.82

TCSAGAMYNWPECF [Phage-1229]
Anti-CD28 Fab (SEQ ID NOs: 202, 203) signal [3]: 0.92

QCAAGFSYTWPECY [Phage-1231]
Anti-CD28 Fab (SEQ ID NOs: 202, 203) signal [3]: 0.9

TCAAGAMWVWPTCL [Phage-1052]
Anti-CD28 Fab (SEQ ID NOs: 202, 203) signal [1]: 1.66 | Anti-CD28 Fab signal in the presence of CD28 [2]: 0.07

PCAAGAHYVWPVCF [Phage-1221]
Anti-CD28 Fab (SEQ ID NOs: 202, 203) signal [3]: 0.97

TCAAGATYEWPSCI [Phage-1234]
Anti-CD28 Fab (SEQ ID NOs: 202, 203) signal [3]: 0.86

WCAAGAMYPWPLCL [Phage-1049]
Anti-CD28 Fab (SEQ ID NOs: 202, 203) signal [1]: 1.67 | Anti-CD28 Fab signal in the presence of CD28 [2]: 0.06

SCSAGAMWLWPECF [Phage-1241]
Anti-CD28 Fab (SEQ ID NOs: 202, 203) signal [3]: 0.8

TCAAGAGWAWPFCF [Phage-1056]
Anti-CD28 Fab (SEQ ID NOs: 202, 203) signal [1]: 1.65 | Anti-CD28 Fab signal in the presence of CD28 [2]: 0.09

SCAAGASYSWPLCF [Phage-1225]
Anti-CD28 Fab (SEQ ID NOs: 202, 203) signal [3]: 0.95

LCAAGANYPWPACL [Phage-1053]
Anti-CD28 Fab (SEQ ID NOs: 202, 203) signal [1]: 1.66 | Anti-CD28 Fab signal in the presence of CD28 [2]: 0.07

WCSAVFSYQWPPCF [Phage-1242]
Anti-CD28 Fab (SEQ ID NOs: 202, 203) signal [3]: 0.78

TCSAGAMYSWPLCI [Phage-1230]
Anti-CD28 Fab (SEQ ID NOs: 202, 203) signal [3]: 0.91

LCEAGFNYDWPRCL [Phage-1236]
Anti-CD28 Fab (SEQ ID NOs: 202, 203) signal [3]: 0.85

ECGWEPGQHWRVCF [Phage-1238]
Anti-CD28 Fab (SEQ ID NOs: 202, 203) signal [3]: 0.82

LCAAVFAYTWPMCF [Phage-1220]
Anti-CD28 Fab (SEQ ID NOs: 202, 203) signal [3]: 0.98

VCAAGAAYPWPACL [Phage-1226]
Anti-CD28 Fab (SEQ ID NOs: 202, 203) signal [3]: 0.93

MCAAGAMYNWPLCL [Phage-1224]
Anti-CD28 Fab (SEQ ID NOs: 202, 203) signal [3]: 0.95

WCAAFFHYPWPQCF [Phage-1232]
Anti-CD28 Fab (SEQ ID NOs: 202, 203) signal [3]: 0.87

TCSAGATWPWPICL (cysteine pairing not given here; also: biotinylated, site not given here) [Peptide-89]
EC50 [4]: 2.1 nM

TCSAGATYKWPTCL [Phage-1222]
Anti-CD28 Fab (SEQ ID NOs: 202, 203) signal [3]: 0.97

TCSAGAHYPWPMCL [Phage-1227]
Anti-CD28 Fab (SEQ ID NOs: 202, 203) signal [3]: 0.93

SCAAGATYKWPACF [Phage-1240]
Anti-CD28 Fab (SEQ ID NOs: 202, 203) signal [3]: 0.8

SCAAGLSYPWPDCL [Phage-1055]
Anti-CD28 Fab (SEQ ID NOs: 202, 203) signal [1]: 1.65 | Anti-CD28 Fab signal in the presence of CD28 [2]: 0.07

ADWCPRDLWVHCFA (cysteine pairing not given here; also: biotinylated, site not given here) [Peptide-2]
Octet signal (Ab-1 [5]): 0.7 | t1/2 (Ab-1 [5]): 3.1 min | IC50 (Ab-1 [6]): 2000 nM | EC50 (Ab-1 [7]): 75.9 nM

PDWCPRDLWVHCFA (cysteine pairing not given here; also: biotinylated, site not given here) [Peptide-14]
Octet signal (Ab-1 [5]): 0.328 | t1/2 (Ab-1 [5]): 3.4 min | IC50 (Ab-1 [6]): 8340 nM | EC50 (Ab-1 [7]): 102 nM

GDWCPRDLWVHCFA (cysteine pairing not given here; also: biotinylated, site not given here) [Peptide-8]
Octet signal (Ab-1 [5]): 0.479 | t1/2 (Ab-1 [5]): 3.9 min | IC50 (Ab-1 [6]): 7060 nM | EC50 (Ab-1 [7]): 73.9 nM

SDWCPRDLWVHCFA (cysteine pairing not given here; also: biotinylated, site not given here) [Peptide-15]
Octet signal (Ab-1 [5]): 0.551 | t1/2 (Ab-1 [5]): 2.9 min | IC50 (Ab-1 [6]): 2630 nM | EC50 (Ab-1 [7]): 66.5 nM

IDWCPRDLWVHCFA (cysteine pairing not given here; also: biotinylated, site not given here) [Peptide-10]
Octet signal (Ab-1 [5]): 0.845 | t1/2 (Ab-1 [5]): 3.1 min | IC50 (Ab-1 [6]): 2660 nM | EC50 (Ab-1 [7]): 44.9 nM

NDWCPRDLWVHCFA (cysteine pairing not given here; also: biotinylated, site not given here) [Peptide-4]
Octet signal (Ab-1 [5]): 0.434 | t1/2 (Ab-1 [5]): 4 min | IC50 (Ab-1 [6]): 5030 nM | EC50 (Ab-1 [7]): 84.3 nM

YDWCPRDLWVHCFA (cysteine pairing not given here; also: biotinylated, site not given here) [Peptide-18]
Octet signal (Ab-1 [5]): 0.849 | t1/2 (Ab-1 [5]): 2.9 min | IC50 (Ab-1 [6]): 3250 nM | EC50 (Ab-1 [7]): 32.2 nM

VDWCPRDLWVHCFA (cysteine pairing not given here; also: biotinylated, site not given here) [Peptide-19]
Octet signal (Ab-1 [5]): 0.919 | t1/2 (Ab-1 [5]): 2.9 min | IC50 (Ab-1 [6]): 4420 nM | EC50 (Ab-1 [7]): 32.5 nM

FDWCPRDLWVHCFA (cysteine pairing not given here; also: biotinylated, site not given here) [Peptide-13]
Octet signal (Ab-1 [5]): 1.01 | t1/2 (Ab-1 [5]): 3.3 min | IC50 (Ab-1 [6]): 780 nM | EC50 (Ab-1 [7]): 39.3 nM

HDWCPRDLWVHCFA (cysteine pairing not given here; also: biotinylated, site not given here) [Peptide-9]
Octet signal (Ab-1 [5]): 0.737 | t1/2 (Ab-1 [5]): 3 min | IC50 (Ab-1 [6]): 2180 nM | EC50 (Ab-1 [7]): 45.4 nM

LDWCPRDLWVHCFA (cysteine pairing not given here; also: biotinylated, site not given here) [Peptide-11]
Octet signal (Ab-1 [5]): 1.37 | t1/2 (Ab-1 [5]): 4.5 min | IC50 (Ab-1 [6]): 630 nM | EC50 (Ab-1 [7]): 23.4 nM

DDWCPRDLWVHCFA (cysteine pairing not given here; also: biotinylated, site not given here) [Peptide-5]
Octet signal (Ab-1 [5]): 0.461 | t1/2 (Ab-1 [5]): 4.2 min | IC50 (Ab-1 [6]): 4460 nM | EC50 (Ab-1 [7]): 86.8 nM

WDWCPRDLWVHCFA (cysteine pairing not given here; also: biotinylated, site not given here) [Peptide-17]
Octet signal (Ab-1 [5]): 1.15 | t1/2 (Ab-1 [5]): 4.1 min | IC50 (Ab-1 [6]): 2800 nM | EC50 (Ab-1 [7]): 21.7 nM

SCAAGAHWSWPACL [Phage-1223]
Anti-CD28 Fab (SEQ ID NOs: 202, 203) signal [3]: 0.97

SCAAGATYEWPTCL [Phage-1239]
Anti-CD28 Fab (SEQ ID NOs: 202, 203) signal [3]: 0.81

LCSAGAMYPWPLCY [Phage-1051]
Anti-CD28 Fab (SEQ ID NOs: 202, 203) signal [1]: 1.66 | Anti-CD28 Fab signal in the presence of CD28 [2]: 0.08

RCKAGVPYKWPMCL [Phage-1233]
Anti-CD28 Fab (SEQ ID NOs: 202, 203) signal [3]: 0.87

TCAAGAKYVWPLCF [Phage-1235]
Anti-CD28 Fab (SEQ ID NOs: 202, 203) signal [3]: 0.85

TCSAGASYPWPVCL [Phage-1048]
Anti-CD28 Fab (SEQ ID NOs: 202, 203) signal [1]: 1.67 | Anti-CD28 Fab signal in the presence of CD28 [2]: 0.07
